Experimental data from PMC9107513.

Experiments:
[1] = MS of immunoprecipitated endogenous RYR1, C2C12; settings: glycan lost; control: control siRNA
[2] = western blot, endogenous RYR1, C2C12 myotubes ± MG-132; settings: glycan lost; control: vector / control siRNA
[3] = IP of exogenous RYR1, phospho-Ser/Thr blot; settings: glycan lost; control: control siRNA
[4] = western blot, exogenous wild-type RYR1 in C2C12; settings: glycan lost; control: vector / control siRNA
[5] = IP of tagged RYR1, blot of tagged ubiquitin, MG-132; settings: glycan lost; control: vector / control siRNA

For RYR1: OGT knockdown, the “other: phosphorylation at T4338” value [1] was “increases”.
In the case of RYR1: siRNA-mediated knockdown of OGT, the expression_or_secretion [2] is reported as “increases”.
For human RYR1: OGT knockdown, the “other: Ser/Thr phosphorylation” value [3] was “increases”, the expression_or_secretion [4] was “increases” and the “other: ubiquitination” value [5] was “decreases”.
